Numbering of substitutions follows the chain as printed.
T1: Peptide-5 (not fully specified)
T1 chain: CDRVYIHPFHLK

T2: Peptide-6b
T2 chain: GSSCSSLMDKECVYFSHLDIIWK

T3: Peptide-13 (not fully specified)
T3 chain: CRPPGFSPFRK

T4: Peptide-8 (not fully specified)
T4 chain: CQLYENKPRRPYILK

T5: Peptide-6a
T5 chain: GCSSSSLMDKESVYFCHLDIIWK

T6: Peptide-3
T6 chain: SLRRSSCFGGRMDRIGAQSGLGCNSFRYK

B1: C1 (protein)
chain: YPYDVPDYAYPYDVPDYAYPYDVPDYAGSYDDGICKSSDCIKSAARLIQNMDATTEPCTDFFKYACGGWLKRNVIPETSSRYGNFDILRDELEVVLKDVLQEPKTEDIVAVQKAKALYRSCINESAIDSRGGEPLLKLLPDIYGWPVATENWEQKYGASWTAEKAIAQLNSKYGKKVLINLFVGTDDKNSVNHVIHIDQPRLGLPSRDYYECTGIYKEACTAYVDFMISVARLIRQEERLPIDENQLALEMNKVMELEKEIANATAKPEDRNDPMLLYNKMTLAQIQNNFSLEINGKPFSWLNFTNEIMSTVNISITNEEDVVVYAPEYLTKLKPILTKYSARDLQNLMSWRFIMDLVSSLSRTYKESRNAFRKALYVTTSETATWRRCANYVNGNMMNAVGRLYVEAAFAGESKHVVEDLIAQIREVFIQTLDDLTWMDAETKKRAEEKALAIKERIGYPDDIVSNDNKLNNEYLELNYKEDEYFENIIQNLKFSQSKQLKKLREKVDKDEWISGAAVVNAFYSSGRNQIVFPAGILQPPFFSAQQSNSLNYGGIGMVIGHEITHGFDDNGRNFNKDGDLVDWWTQQSASNFKEQSQCMVYQYGNFSWDLAGGQHLNGINTLGENIADNGGLGQAYRAYQNYIKKNGEEKLLPGLDLNHKQLFFLNFAQVWCGTYRPEYAVNSIKTVVHSPKNFRIIGTLQNSAEFSEAFHCRKNSYMNPEKKCRVW
B2: C2 (protein)
chain: B1 chain with S206R, R207G, F226L, D569F, F575P, G579D, V688D
B3: C3 (protein)
chain: B1 chain with S206R, R207G, F226L, M398E, D569F, F575P, G579D, V688D
B4: C4 (protein)
chain: B1 chain with S206R, R207G, D569F, G572V, G579V, V688D
B5: C5 (protein)
chain: B1 chain with S206R, R207G, D569F, F575P, G579D, V688D
B6: C6 (protein)
chain: B1 chain with S206R, R207G, D569M, G572V, G579V, V688D
B7: C7 (protein)
chain: B1 chain with S206R, R207G, M398E, D569F, G572V, G579L, V688D
B8: C8 (protein)
chain: B1 chain with S206R, R207G, M398E, D569F, G579W, V688D
B9: C9 (protein)
chain: B1 chain with S206R, R207G, M398E, D569M, G572V, G579L, V688D
B10: C10 (protein)
chain: B1 chain with S206R, F226L, D569M, G572V, F575P, G579D, V688D
B11: C11 (protein)
chain: B1 chain with S206R, F226L, D569M, F575P, G579W, V688D
B12: C12 (protein)
chain: B1 chain with S206R, F226L, M398E, D569M, G579V, V688D
B13: C13 (protein)
chain: B1 chain with R207G, F226L, D569M, G579V, V688D
B14: D6 (protein)
chain: B1 chain with S206R, F226L, A266S, D569M, G572V, F575P, G579D, V688D
B15: D7 (protein)
chain: B1 chain with S206R, F226L, D356G, D569M, G572V, F575P, G579D, V688D
B16: D8 (protein)
chain: B1 chain with S206R, F226L, D569M, G572V, F575P, G579D, G624Q, V688D
B17: D9 (protein)
chain: B1 chain with S206R, F226L, A266S, D356G, D569M, G572V, F575P, G579D, V688D
B18: D10 (protein)
chain: B1 chain with S206R, F226L, A266S, D356G, D569M, G572V, F575P, G579D, G624Q, V688D

Assays:
Peptide-5 = target: T1, Peptide-5
Peptide-6b = target: T2, Peptide-6b
Peptide-13 = target: T3, Peptide-13
Peptide-8 = target: T4, Peptide-8
Peptide-6a = target: T5, Peptide-6a
Peptide-3 = target: T6, Peptide-3

Row | Protein | activity relative to G399V/G714K (B1) (Peptide-5) | kapp ratio vs G399V/G714K (B1) (Peptide-5) | activity relative to G399V/G714K (B1) (Peptide-7) | kapp ratio vs G399V/G714K (B1) (Peptide-7) | kapp ratio vs G399V/G714K (B1) (Peptide-6b) | activity relative to G399V/G714K (B1) (Peptide-2) | kapp ratio vs G399V/G714K (B1) (Peptide-2) | kapp ratio vs G399V/G714K (B1) (Peptide-13) | activity relative to G399V/G714K (B1) (Peptide-4) | kapp ratio vs G399V/G714K (B1) (Peptide-4) | kapp ratio vs G399V/G714K (B1) (Peptide-8) | activity relative to G399V/G714K (B1) (Peptide-6a) | kapp ratio vs G399V/G714K (B1) (Peptide-6a) | kapp ratio vs G399V/G714K (B1) (Peptide-3) | activity relative to G399V/G714K (B1) (Peptide-1) | kapp ratio vs G399V/G714K (B1) (Peptide-1)
1 | B1 | 0.86 fold | 1.02 fold | 0.96 fold | 0.9 fold | 0.76 fold | 1.12 fold | 1.23 fold | 0.52 fold | 1.1 fold | 0.51 fold | 0.62 fold | 0.76 fold | 0.97 fold | 0.36 fold | 1.14 fold | 1.28 fold
2 | B2 | – | 0.19 fold | – | 0.47 fold | 0.1 fold | – | 0.88 fold | 0.68 fold | – | 0.72 fold | 0.34 fold | – | 0.14 fold | 0.24 fold | – | 1.06 fold
3 | B3 | – | 0.15 fold | – | 0.64 fold | 0.09 fold | – | 0.81 fold | 0.85 fold | – | 0.79 fold | 0.37 fold | – | 0.18 fold | 0.24 fold | – | 0.86 fold
4 | B4 | – | 0.27 fold | – | 0.44 fold | 0.29 fold | – | 2.43 fold | 0.62 fold | – | 0.44 fold | 0.4 fold | – | 0.37 fold | 0.24 fold | – | 2.41 fold
5 | B5 | – | 0.22 fold | – | 0.72 fold | 0.18 fold | – | 1.92 fold | 0.63 fold | – | 0.74 fold | 0.41 fold | – | 0.23 fold | 0.24 fold | – | 1.95 fold
6 | B6 | – | 0.29 fold | – | 0.61 fold | 0.19 fold | – | 2.36 fold | 0.85 fold | – | 1.26 fold | 0.37 fold | – | 0.28 fold | 0.24 fold | – | 2.35 fold
7 | B7 | – | 0.34 fold | – | 0.47 fold | 0.28 fold | – | 2.83 fold | 0.43 fold | – | 0.96 fold | 0.46 fold | – | 0.42 fold | 0.24 fold | – | 2.77 fold
8 | B8 | – | 0.27 fold | – | 0.69 fold | 0.24 fold | – | 1.64 fold | 0.43 fold | – | 1.17 fold | 0.36 fold | – | 0.32 fold | 0.24 fold | – | 1.86 fold
9 | B9 | – | 0.22 fold | – | 0.52 fold | 0.21 fold | – | 2.44 fold | 0.52 fold | – | 0.67 fold | 0.46 fold | – | 0.31 fold | 0.24 fold | – | 2.33 fold
10 | B10 | 0.08 fold | 0.17 fold | 0.68 fold | 0.49 fold | 0.19 fold | 2.39 fold | 2.6 fold | 0.68 fold | 0.83 fold | 0.8 fold | 0.34 fold | 0.28 fold | 0.27 fold | 0.24 fold | 2.05 fold | 2.35 fold
11 | B11 | – | 0.19 fold | – | 0.66 fold | 0.11 fold | – | 2.14 fold | 0.61 fold | – | 0.49 fold | 0.35 fold | – | 0.28 fold | 0.24 fold | – | 2.19 fold
12 | B12 | – | 0.26 fold | – | 0.84 fold | 0.18 fold | – | 2.04 fold | 0.83 fold | – | 0.79 fold | 0.43 fold | – | 0.32 fold | 0.24 fold | – | 2.11 fold
13 | B13 | – | 0.18 fold | – | 0.36 fold | 0.18 fold | – | 1.56 fold | 0.39 fold | – | 0.91 fold | 0.35 fold | – | 0.3 fold | 0.24 fold | – | 1.78 fold
14 | B14 | 0.08 fold | – | 0.68 fold | – | – | 2.37 fold | – | – | 0.89 fold | – | – | 0.35 fold | – | – | 2.24 fold | –
15 | B15 | 0.09 fold | – | 0.66 fold | – | – | 1.18 fold | – | – | 0.91 fold | – | – | 0.13 fold | – | – | 0.88 fold | –
16 | B16 | 0.09 fold | – | 0.82 fold | – | – | 2.66 fold | – | – | 0.95 fold | – | – | 0.44 fold | – | – | 2.58 fold | –
17 | B17 | 0.08 fold | – | 0.43 fold | – | – | 1.11 fold | – | – | 0.86 fold | – | – | 0.06 fold | – | – | 1.07 fold | –
18 | B18 | 0.08 fold | – | 0.33 fold | – | – | 1.26 fold | – | – | 0.84 fold | – | – | 0.08 fold | – | – | 1.33 fold | –

Source: patent US20120237496
